Positions count from the first letter of the chain named.
B1: CAB1.4 (protein)
chain: QVQLQQSGAELVKSGGSVKLSCTASGFNIKDSYMHWVRQGPEQGLEWIGWIDPENGDTEYAPKFQGKATFTTDTSSNTAYLQLSSLTSEDTAVYYCNEGTPTGPYYFDYWGQGTTVTVSSGGGGSGGGGSGGGGSENVLTQSPAIVSASPGEKVTITCSASSSVSYMHWFQQKPGTSPKLVIYDTSNLASGVPARFSGSGSGTSYSLTISRMEAEDAATYYCQQRDSYPLTFGAGTKLELKRAATPVSEKQLAEVVANTITPLMKAQSVPGMAVAVIYQGKPHYYTFGKADIAANKPVTPQTLFELGSISKTFTGVLGGDAIARGEISLDDAVTRYWPQLTGKQWQGIRMLDLATYTAGGLPLQVPDEVTDNASLLRFYQNWQPQWKPGTTRLYANASIGLFGALAVKPSGMPYEQAMTTRVLKPLKLDHTWINVPKAEEAHYAWGYRDGKAVRVSPGMLDAQAYGVKTNVQDMANWVMANMAPENVADASLKQGIALAQSRYWRIGSMYQGLGWEMLNWPVEANTVVETSFGNVALAPLPVAEVNPPAPPVKASWVHKTGSTGGFGSYVAFIPEKQIGIVMLANTSYPNPARVEAAYHILEALQ
B2: SW149.5 (protein)
chain: B1 chain with T100L, T102L, P104A, Y105I, F107N
B3: CAB1.7: best variant of library SW155 from SW149.5; SEQ ID NO:9 (protein)
chain: B1 chain with T100L, T102L, P104A, Y105I, F107N, S163A, S165Y, Y166A, K241D
modifications: CAB1.7 protein variant

Columns and labels:
[1] = target: T1, CEA (carcinoembryonic antigen) (Homo sapiens, UniProt P06731); assay: CEA-binding assay on CEA-coated plates, bound BLA activity read with nitrocefin; conditions: for binding to CEA / affinity in library screening: relative to parent clone
T1 construct: purchased Biodesign Intl., Saco, Me
T1 sequence (P06731 35-676): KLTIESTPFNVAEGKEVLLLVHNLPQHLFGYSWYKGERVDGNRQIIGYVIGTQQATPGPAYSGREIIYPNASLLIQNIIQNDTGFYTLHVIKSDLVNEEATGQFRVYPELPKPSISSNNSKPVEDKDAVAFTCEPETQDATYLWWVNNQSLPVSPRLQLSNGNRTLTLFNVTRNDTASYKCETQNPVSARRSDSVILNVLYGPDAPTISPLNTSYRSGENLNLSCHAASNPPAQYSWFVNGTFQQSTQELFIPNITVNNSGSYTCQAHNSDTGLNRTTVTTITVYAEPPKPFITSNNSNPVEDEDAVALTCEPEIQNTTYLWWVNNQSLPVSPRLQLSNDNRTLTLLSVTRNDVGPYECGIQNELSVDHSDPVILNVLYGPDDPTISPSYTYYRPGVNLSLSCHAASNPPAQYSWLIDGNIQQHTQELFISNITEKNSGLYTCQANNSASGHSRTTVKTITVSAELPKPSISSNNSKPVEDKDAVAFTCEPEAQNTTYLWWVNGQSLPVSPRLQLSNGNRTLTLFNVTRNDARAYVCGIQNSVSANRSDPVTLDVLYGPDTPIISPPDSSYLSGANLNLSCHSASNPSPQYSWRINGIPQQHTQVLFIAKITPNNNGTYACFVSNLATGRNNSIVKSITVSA
Method: (§1) Binding to CEA (carcinoembryonic antigen, Biodesign Intl., Saco, Me.) was measured using the following procedure: 96-well plates were coated with 100 ul per well of 5 ug/ml of CEA in 50 mM carbonate buffer pH 9.6 overnight. The plates were washed with PBST and blocked for 1-2 hours with 300 ul of casein (Pierce, Rockford, Ill.). 100 ul of sample from the production plate diluted 100-1000 fold was added to the CEA-coated plate and the plates were incubated for 2 h at room temperature. Subsequently, the plates were washed four times with PBST and 200 ul nitrocefin assay buffer was added, and the BLA activity was measured as described above.
as §1, with “Biodesign Intl., Saco. Me.) was” for “Biodesign Intl., Saco, Me.) was”, “Ill.). 100 n1 of sample” for “Ill.). 100 ul of sample”, “to the CEA coated plate and” for “to the CEA-coated plate and”, “described above. CEA binding was measured in 50 mM phosphate buffer pH 6.5 and in a separate experiment in 50 mM phosphate buffer pH 7.4.” for “described above.”
Winners were confirmed by culturing them in 5 ml of LB medium containing 5 mg/l chloramphenicol and 0.1 mg/l cefotaxime (Sigma) for 2 days at 37 C. Subsequently, the cultures were centrifuged and the pellet was suspended in 375 ul of BPER reagent to release the fusion protein. BLA activity was determined as above. One unit of activity was defined as the amount of BLA that leads to an absorbance increase of one mOD per minute. The samples were diluted based on their total content of BLA activity and the CEA-binding assay was performed as described above but adding various sample dilutions to each well.
In order to compare the target-binding properties of various CAB1 variants, we grew 5 ml cultures of TOP10F′ containing the corresponding expression plasmids, as provided above for 3 days at 25 C in LB medium containing 5 mg/l chloramphenicol. The cultures were centrifuged, and the resulting supernatant was discarded. The cell pellets were resuspended in 500 μL of B-PER reagent. This was incubated for 30 minutes. Lactamase concentration in each sample was determined using nitrocephin as substrate, as provided above.
Binding of the samples to microtiter plates coated with CEA was studied in 50 mM phosphate buffer at pH 6.5 and pH 7.4, as provided above.

host proteases = assay: Screen for improved expression: total BLA activity and CEA-bound BLA activity of CAB1 fusion variants after 3 days of culture (resistance to host proteases); conditions: limited randomized library on pSW129.5 template
Method: Degradation seems to occur mainly in the scFv portion of the CAB1 fusion protein as the cultures contain significant amounts of free BLA after 3 days, which can be detected by Western blotting, or a nitrocefin (Oxoid, N.Y.) activity assay. Thus we applied a screen to library NA05 that was able to detect variants of CAB1-scFv that would resist degradation by host proteases over 3 days of culture at 37 C.
Library NA05 was plated onto agar plates with LA medium containing 5 mg/l chloramphenicol and 0.1 mg/l cefotaxime (Sigma). 910 colonies were transferred into a total of 10 96-well plates containing 100 ul/well of LA medium containing 5 mg/l chloramphenicol and 0.1 mg/l cefotaxime. […] The production plate was diluted 100-fold in PBST (PBS containing 0.125% Tween-20) and BLA activity was measured by transferring 20 ul diluted lysate into 180 ul of nitrocephin assay buffer (0.1 mg/ml nitrocephin in 50 mM PBS buffer containing 0.125% octylglucopyranoside (Sigma)) and the BLA activity was determined at 490 inn using a Spectramax plus plate reader (Molecular Devices, Sunnyvale, Calif.).
Binding to CEA (carcinoembryonic antigen, Biodesign Intl., Saco, Me.) was measured using the following procedure: 96-well plates were coated with 100 ul per well of 5 ug/ml of CEA in 50 mM carbonate buffer pH 9.6 overnight. […]

LS174T cells = assay: Binding of CAB variants to fixed LS174T cells; set-up: species or system human
Method: In a similar experiment, binding of variants to LS174T cells was measured. LS174T cells were inoculated in 96 well polystyrene plate at 1×10^5 cells/well in a medium containing 70% DMEM, 30% F12, non-essential amino acids, L-Glut, and Sodium Pyruvate (all from Mediatech). The plate was incubated at 37° C. in a humidified CO2 incubator for 20 hours. The cells were then fixed with 4% formaldehyde in PBS (Polysciences, Warrington, Pa.). The plate was washed with PBST, and 1 mg/ml NaBH4 (Sigma) was added into each well to quench any reactive group. Then the plate was washed again with PBST. Binding of CAB molecules was continued the same way as binding to CEA antigen.

Molecule | binding to CEA ([1]; pH 6.5) | binding to CEA ([1]; pH 7.4) | binding to CEA / affinity in library screening [1] | expression (host proteases) | binding to LS174T cells (LS174T cells; pH 6.5) | saturation levels of binding curves on LS174T cells (LS174T cells; pH 6.5 vs pH 7.4) | binding to LS174T cells (LS174T cells; pH 7.4, compared to CAB1.2)
B1 | significant binding | very weak binding |  |  |  |  | 
B2 |  |  | improved expression and affinity | improved expression |  |  | 
B3 |  |  | significantly improved binding to CEA |  | closely resembles the binding curve of CAB1.2 | pH-dependent | significantly weaker binding

Source: patent US20110160440A1, “Cab Molecules” (GENENCOR INTERNATIONAL, INC., priority 2003, published 2011)
